For three molecules, RBC lysis assay IC50 (P. aeruginosa strain 57/66(O6)) results are on record in patent US20220289830A1.

Sequences and labels used below:
B1: 2D3 (antibody, V domains shown)
VH: EVQLLESGGGLVQPGGSLRLSCTASGFTFSDNHMSWVRQAPGKGLDWVSGISESGGSTYYADSVKGRFSTSRDNSKSTLYLDMNSLRAEDTAIYYCAKGRFSYDTRHFFRAVYGMDVWGQGTAVTVSS
VL: DIQLTQSPSSLSASVGDRVTITCRASQGISSYLAWYQQKPGKAPKLLIYAASTLQSGVPSRFSGSGSGTDFTLTISSLQPEDFATYYCQQLSSYPLSFGGGTKVEIK
B2: 7B1-1F5 (antibody, V domains shown)
VH: EVQLLESGGGLVQPGGSLRLSCTASGFTFSDNYMSWVRQAPGKGLDWVSVISESGGSTNYADSVKGRFSTSRDNSKSTLYLDMNSLRAEDTAIYYCAKGRFSTLSSHFFRAVYGMDVWGQGTAVTVSS
VL: DIQLTQSPSSFSASTGDRVTITCRASQGISSYLAWYQQKPGKAPKVLIYAASTLQSGVPSRFSGSGSGTEFTLTISSLQPEDFATYYCQQLKSYPLTFGGGTKLEIK
B3: 9B12 (antibody, V domains shown)
VH: EVQLLESGGGLVQPGGSLRLSCTASGFTFSDNPMSWVRQAPGKGLDWVSVISESGGSTNDADSVKGRFSTSRDNSKSTLYLDMNSLRAEDTAIYYCAKGRFSTNSDHFYRAVYGMDVWGQGTAVTVSS
VL: DIQLTQSPSSLSASVGDRVTITCRASQGISSYLAWYQQKPGKAPKLLIYAASTLQSGVPSRFSGSGSGTDFTLTISSLQPEDFATYYCQQLSSYPLTFGGGTKVEIK

The target in this test is native PcrV on live Pseudomonas aeruginosa (strains O6-57/66, O11-PA103, O1-52/66, O16-177/81) (Pseudomonas aeruginosa). In words: cell-based or functional assay.
Molecule B1 returned an RBC lysis assay IC50 (P. aeruginosa strain 57/66(O6)) of 0.05 µg/mL.

In turn, B2 gave an RBC lysis assay IC50 (P. aeruginosa strain 57/66(O6)) of 0.19 µg/mL.

The molecule B3 showed an RBC lysis assay IC50 (P. aeruginosa strain 57/66(O6)) of 0.07 µg/mL.
